Measurements taken from patent publication US20150344570A1 (published 2015).

T1: FcγRIIb extracellular domain with C-terminal His tag (human, UniProt P31994 43-217)
T1 construct: extracellular domain; also called FcgRIIb; 2b
T1 sequence (looked up): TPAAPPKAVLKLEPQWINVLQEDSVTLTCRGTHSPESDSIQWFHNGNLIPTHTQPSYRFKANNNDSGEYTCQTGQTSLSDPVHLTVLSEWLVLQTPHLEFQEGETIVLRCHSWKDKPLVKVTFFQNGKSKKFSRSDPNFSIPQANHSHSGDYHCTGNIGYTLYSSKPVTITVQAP

B1: GpH7-A5/GpH7-B3 variant G237_20W/GpL16-k0 (antibody, human IgG1, kappa)
heavy 1: not shown
heavy 2: not shown
light: DIVMTQSPLSLPVTPGEPASISCQASESLVHSNRNTYLHWYLQKPGQSPQLLIYKVSNRFSGVPDRFSGSGSGTDFTLKISRVEAEDVGVYYCSQNTHVPPTFGQGTKVEIERTVAAPSVFIFPPSDEQLKSGTASVVCLLNNFYPREAKVQWKVDNALQSGNSQESVTEQDSKDSTYSLSSTLTLSKADYEKHKVYACEVTHQGLSSPVTKSFNRGEC
notes: also called He Ab G237_20W
B2: GpH7-A5/GpH7-B3 variant K326_08L/GpL16-k0 (antibody, human IgG1, kappa)
heavy 1: not shown
heavy 2: not shown
light: B1 light
notes: also called He Ab K326_08L
B3: GpH7-A5/GpH7-B3 variant N325_04F/GpL16-k0 (antibody, human IgG1, kappa)
heavy 1: not shown
heavy 2: not shown
light: B1 light
notes: also called He Ab N325_04F
B4: GpH7-A5/GpH7-B3 variant S239_10E/GpL16-k0 (antibody, human IgG1, kappa)
heavy 1: not shown
heavy 2: not shown
light: B1 light
notes: also called He Ab S239_10E
B5: GpH7-A5/GpH7-B3 variant P331_16H/GpL16-k0 (antibody, human IgG1, kappa)
heavy 1: not shown
heavy 2: not shown
light: B1 light
notes: also called He Ab P331_16H
B6: GpH7-A5/GpH7-B3 variant P331_07I/GpL16-k0 (antibody, human IgG1, kappa)
heavy 1: not shown
heavy 2: not shown
light: B1 light
notes: also called He Ab P331_07I
B7: GpH7-A5/GpH7-B3 variant S267_01G/GpL16-k0 (antibody, human IgG1, kappa)
heavy 1: not shown
heavy 2: not shown
light: B1 light
notes: also called He Ab S267_01G
B8: GpH7-A5/GpH7-B3 variant K326_07I/GpL16-k0 (antibody, human IgG1, kappa)
heavy 1: not shown
heavy 2: not shown
light: B1 light
notes: also called He Ab K326_07I
B9: GpH7-A5/GpH7-B3 variant I332_02A/GpL16-k0 (antibody, human IgG1, kappa)
heavy 1: not shown
heavy 2: not shown
light: B1 light
notes: also called He Ab I332_02A
B10: GpH7-A5/GpH7-B3 variant N325_09D/GpL16-k0 (antibody, human IgG1, kappa)
heavy 1: not shown
heavy 2: not shown
light: B1 light
notes: also called He Ab N325_09D
B11: GpH7-A5/GpH7-B3 variant P238_06M/GpL16-k0 (antibody, human IgG1, kappa)
heavy 1: not shown
heavy 2: not shown
light: B1 light
notes: also called He Ab P238_06M
B12: GpH7-A5/GpH7-B3 variant S267_19Q/GpL16-k0 (antibody, human IgG1, kappa)
heavy 1: not shown
heavy 2: not shown
light: B1 light
notes: also called He Ab S267_19Q
B13: GpH7-A5/GpH7-B3 variant S239_05P/GpL16-k0 (antibody, human IgG1, kappa)
heavy 1: not shown
heavy 2: not shown
light: B1 light
notes: also called He Ab S239_05P
B14: GpH7-A5/GpH7-B3 variant P331_10E/GpL16-k0 (antibody, human IgG1, kappa)
heavy 1: not shown
heavy 2: not shown
light: B1 light
notes: also called He Ab P331_10E
B15: GpH7-A5/GpH7-B3 variant I336_06M/GpL16-k0 (antibody, human IgG1, kappa)
heavy 1: not shown
heavy 2: not shown
light: B1 light
notes: also called He Ab I336_06M
B16: GpH7-A5/GpH7-B3 variant P331_15Y/GpL16-k0 (antibody, human IgG1, kappa)
heavy 1: not shown
heavy 2: not shown
light: B1 light
notes: also called He Ab P331_15Y
B17: GpH7-A5/GpH7-B3 variant L235_20W/GpL16-k0 (antibody, human IgG1, kappa)
heavy 1: not shown
heavy 2: not shown
light: B1 light
notes: also called He Ab L235_20W
B18: GpH7-A5/GpH7-B3 variant P238_20W/GpL16-k0 (antibody, human IgG1, kappa)
heavy 1: not shown
heavy 2: not shown
light: B1 light
notes: also called He Ab P238_20W
B19: GpH7-A5/GpH7-B3 variant H268_03V/GpL16-k0 (antibody, human IgG1, kappa)
heavy 1: not shown
heavy 2: not shown
light: B1 light
notes: also called He Ab H268_03V
B20: GpH7-A5/GpH7-B3 variant L235_04F/GpL16-k0 (antibody, human IgG1, kappa)
heavy 1: not shown
heavy 2: not shown
light: B1 light
notes: also called He Ab L235_04F
B21: GpH7-A5/GpH7-B3 variant S239_06M/GpL16-k0 (antibody, human IgG1, kappa)
heavy 1: not shown
heavy 2: not shown
light: B1 light
notes: also called He Ab S239_06M
B22: GpH7-A5/GpH7-B3 variant L328_13S/GpL16-k0 (antibody, human IgG1, kappa)
heavy 1: not shown
heavy 2: not shown
light: B1 light
notes: also called He Ab L328_13S
B23: GpH7-A5/GpH7-B3 variant P238_04F/GpL16-k0 (antibody, human IgG1, kappa)
heavy 1: not shown
heavy 2: not shown
light: B1 light
notes: also called He Ab P238_04F
B24: GpH7-A5/GpH7-B3 variant L328_10E/GpL16-k0 (antibody, human IgG1, kappa)
heavy 1: not shown
heavy 2: not shown
light: B1 light
notes: also called He Ab L328_10E
B25: GpH7-A5/GpH7-B3 variant N325_20W/GpL16-k0 (antibody, human IgG1, kappa)
heavy 1: not shown
heavy 2: not shown
light: B1 light
notes: also called He Ab N325_20W
B26: GpH7-A5/GpH7-B3 variant L328_09D/GpL16-k0 (antibody, human IgG1, kappa)
heavy 1: not shown
heavy 2: not shown
light: B1 light
notes: also called He Ab L328_09D
B27: GpH7-A5/GpH7-B3 variant S267_06M/GpL16-k0 (antibody, human IgG1, kappa)
heavy 1: not shown
heavy 2: not shown
light: B1 light
notes: also called He Ab S267_06M
B28: GpH7-A5/GpH7-B3 variant P331_20W/GpL16-k0 (antibody, human IgG1, kappa)
heavy 1: not shown
heavy 2: not shown
light: B1 light
notes: also called He Ab P331_20W
B29: GpH7-A5/GpH7-B3 variant P238_10E/GpL16-k0 (antibody, human IgG1, kappa)
heavy 1: not shown
heavy 2: not shown
light: B1 light
notes: also called He Ab P238_10E

Molecular target: T1, FcγRIIb extracellular domain with …
Assay: SPR (Biacore), relative binding

Row | Binder | He/Con_2b
1 | B1 | 193 % of HeCon Ab GpH7-A5/GpH7-B3/GpL16-k0
2 | B2 | 177 % of HeCon Ab GpH7-A5/GpH7-B3/GpL16-k0
3 | B3 | 143 % of HeCon Ab GpH7-A5/GpH7-B3/GpL16-k0
4 | B4 | 181 % of HeCon Ab GpH7-A5/GpH7-B3/GpL16-k0
5 | B5 | 116 % of HeCon Ab GpH7-A5/GpH7-B3/GpL16-k0
6 | B6 | 114 % of HeCon Ab GpH7-A5/GpH7-B3/GpL16-k0
7 | B7 | 105 % of HeCon Ab GpH7-A5/GpH7-B3/GpL16-k0
8 | B8 | 199 % of HeCon Ab GpH7-A5/GpH7-B3/GpL16-k0
9 | B9 | 103 % of HeCon Ab GpH7-A5/GpH7-B3/GpL16-k0
10 | B10 | 124 % of HeCon Ab GpH7-A5/GpH7-B3/GpL16-k0
11 | B11 | 174 % of HeCon Ab GpH7-A5/GpH7-B3/GpL16-k0
12 | B12 | 218 % of HeCon Ab GpH7-A5/GpH7-B3/GpL16-k0
13 | B13 | 102 % of HeCon Ab GpH7-A5/GpH7-B3/GpL16-k0
14 | B14 | 116 % of HeCon Ab GpH7-A5/GpH7-B3/GpL16-k0
15 | B15 | 101 % of HeCon Ab GpH7-A5/GpH7-B3/GpL16-k0
16 | B16 | 114 % of HeCon Ab GpH7-A5/GpH7-B3/GpL16-k0
17 | B17 | 147 % of HeCon Ab GpH7-A5/GpH7-B3/GpL16-k0
18 | B18 | 123 % of HeCon Ab GpH7-A5/GpH7-B3/GpL16-k0
19 | B19 | 114 % of HeCon Ab GpH7-A5/GpH7-B3/GpL16-k0
20 | B20 | 118 % of HeCon Ab GpH7-A5/GpH7-B3/GpL16-k0
21 | B21 | 101 % of HeCon Ab GpH7-A5/GpH7-B3/GpL16-k0
22 | B22 | 149 % of HeCon Ab GpH7-A5/GpH7-B3/GpL16-k0
23 | B23 | 312 % of HeCon Ab GpH7-A5/GpH7-B3/GpL16-k0
24 | B24 | 172 % of HeCon Ab GpH7-A5/GpH7-B3/GpL16-k0
25 | B25 | 169 % of HeCon Ab GpH7-A5/GpH7-B3/GpL16-k0
26 | B26 | 199 % of HeCon Ab GpH7-A5/GpH7-B3/GpL16-k0
27 | B27 | 210 % of HeCon Ab GpH7-A5/GpH7-B3/GpL16-k0
28 | B28 | 111 % of HeCon Ab GpH7-A5/GpH7-B3/GpL16-k0
29 | B29 | 232 % of HeCon Ab GpH7-A5/GpH7-B3/GpL16-k0
